Patent US20170362314A1 (CANCER RESEARCH TECHNOLOGY, published 2017)
Values belong to the binder of their own block, whether it stands above or below them.

Key:
[1] = biological target: human CXCL12 (soluble ligand in the cell migration assays) (human, UniProt P48061-2 22-89, limits assumed); experiment: cell-based or functional assay
[2] = biological target: T1, biotinylated CXCL12 (synthesised 68 amino acid CXCL12) (human, UniProt P48061 22-89, biotinylated (site not stated)); experiment: SPR (Biacore T100), Fab over biotinylated CXCL12 immobilised on a streptavidin chip, 1:1 Langmuir binding model [panel B table]
T1 construct: also called SDF-1
Description: (§1) FIG. 3. Affinity measurement of anti-CXCL12 antibodies using SPR A) Sensograms of multiple concentrations of lead and parental anti-CXCL12 Fabs binding to biotinylated CXCL12 immobilised on a streptavidin chip (carboxymethylated dextran matrix pre-immobilised with streptavidin). […] The equilibrium dissociation constant (KD) of the parent clone 093_2D06 was calculated using steady state binding model due to its very fast off-rate. […] The binding constants of these antibodies were determined using two-state binding model. Biacore T100 evaluation software was used for all calculations.
(§2) The lead anti-CXCL12 antibodies and their parent clones were subjected to a full kinetic analysis to determine the improvement in binding constants after affinity maturation. The binding of the Fab antibodies to biotinylated CXCL12 immobilised on a streptavidin chip was analysed using SPR (FIG. 3). Equilibrium dissociation constants (KD) of these antibodies were determined using a binding model appropriate for each binding interaction (FIGS. 3B and C). […] Such binding profiles are generally associated with binding interactions that involve antibody (or any other analyte) induced conformational change of the ligand resulting in a two-step binding. […]

[3] = biological target: T1, biotinylated CXCL12 (synthesised 68 …); experiment: SPR: Fab over biotinylated CXCL12 on a streptavidin chip
Description: as §1, §2

[4] = biological target: T1, biotinylated CXCL12 (synthesised 68 …); experiment: SPR (Biacore T100): Fab over biotinylated CXCL12 on a streptavidin chip, 1:1 Langmuir model; SPR kinetic analysis, Fab over biotinylated CXCL12 on streptavidin chip
Description: as §1, §2

[5] = biological target: T1, biotinylated CXCL12 (synthesised 68 …); experiment: affinity constant for human CXCL12, Fab format; method not restated; comparison with WO 2008/018641; method not restated
[6] = biological target: T1, biotinylated CXCL12 (synthesised 68 …); experiment: SPR (Biacore T100), Fab over biotinylated CXCL12 immobilised on a streptavidin chip, 1:1 Langmuir binding model [Continued) (panel B table]
Description: as §1, §2

[7] = biological target: T1, biotinylated CXCL12 (synthesised 68 …); experiment: SPR (Biacore T100): Fab over biotinylated CXCL12 on a streptavidin chip, two-state binding model; SPR, two-state binding model
Description: as §1, §2

[8] = biological target: T1, biotinylated CXCL12 (synthesised 68 …); experiment: SPR: Fab over biotinylated CXCL12 on a streptavidin chip, two-state binding model
Description: as §1, §2

[9] = biological target: T1, biotinylated CXCL12 (synthesised 68 …); experiment: SPR (Biacore T100), Fab over biotinylated CXCL12 immobilised on a streptavidin chip, two-state binding model [panel C table]
Description: as §1, §2

[10] = biological target: T1, biotinylated CXCL12 (synthesised 68 …); experiment: SPR (Biacore T100), Fab over biotinylated CXCL12 immobilised on a streptavidin chip, two-state binding model [Continued) (panel C table]
Description: as §1, §2

T1 sequence (P48061 22-89 limits assumed): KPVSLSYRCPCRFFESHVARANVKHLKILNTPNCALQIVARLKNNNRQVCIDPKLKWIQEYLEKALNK
Chain of human CXCL12 (soluble ligand in the cell migration assays) (P48061 22-89 limits assumed): as above

IC50, transwell migration of TOV-21G cells towards CXCL12 (further replicate experiments) [1]: 5 nM
B1: 114_3H1 IgG (human IgG2) (antibody, V domains shown)
VH: QVQLVQSGAEVKKPGASVKVSCKVSGYTLTELSMHWVRQAPGKGLEWMGGFDPEDGETIYAQKFQGRVTMTEDTSTDTAYMELSSLGSEDTAVYYCARRVWGSYRPNDAFDIWGQGTLVTVSS
VL: DIQMTQSPSSLSASVGDRVTITCRASQSISDYVNWYQQKPGKAPNLLMFAASTSQSGVPSRFTGSGSGTDFTLTISSLQPEDFATYFCQQSYSPPYTFGQGTKVEIKR

kon [2]: 490000 M⁻¹ s⁻¹
fold improvement in affinity from its parent clone 093_2D06 [3]: 3800 fold
Kd [4]: 1 nM
Kd [5]: 2.4 nM
koff [6]: 0.00051 s⁻¹
B2: 114_3H1 Fab (Fab, V domains shown)
VH: B1 VH
VL: B1 VL
notes: Fab expressed from pBIOCAM-7 in HEK-293F cells, with hexa-histidine and tri-FLAG tags

IC50, transwell migration of TOV-21G cells towards CXCL12 (further replicate experiments) [1]: 9 nM
B3: 113_1H12 in a human IgG2 format (antibody, V domains shown)
VH: EVQLVQSGAEVKKPGASVKVSCKTSGYTFTNYGISWVRQAPGQGLEWMGWISAYNGNTNYAQKLQGRVTMTTDTSTSTAYMELRSLRSDDTAVYYCARAGGVYYDYFTDYWGQGTMVTVSS
VL: QSELTQPPSASGTPGQRVTISCSGSRSNIGSNSVNWYQQLPGTAPKLLIYNNDERPSGVPDRFSGSKSGTSASLAISGLQSEDEADYFCAAWDDSLNVGELFGGGTKLTVLG

Kd [7]: 3.7 nM
Kd [5]: 4.2 nM
fold improvement in affinity following light chain shuffling (against its parent clone) [8]: 4.5 fold
ka 1 [9]: 510000 M⁻¹ s⁻¹
kd 1 [9]: 0.04 s⁻¹
ka 2 [10]: 0.015 s⁻¹
kd 2 [10]: 0.00079 s⁻¹
B4: 113_1H12 Fab (Fab, V domains shown)
VH: B3 VH
VL: B3 VL
notes: as for B2
